Results reported in patent US20230079757A1, “METHODS AND MATERIALS FOR TREATING CANCER” (Mayo Foundation for Medical Education and Research, priority 2020, published 2023).

Biological target: T1, STAT2 (human, UniProt P52630 1-851)
T1 construct: also called endogenous STAT2
Test: co-IP of ectopically expressed proteins in 293T cells (FIG. 11E)
Protocol: For extraction of nuclear and cytoplasmic proteins from cells, NE-PER Nuclear and Cytoplasmic Extraction Kit (# 78835, Thermo Fisher Scientific) was used according to the manufacturer's instructions. IP buffer (50 mM Tris-HCl pH7.5, 150 mM NaCl, 1% NP40, 0.5% Sodium Deoxycholate) was used to extract whole cell lysate. P rotein A/G agarose (# 20421, Thermo Fisher Scientific) was used for immunoprecipitation of FOXA1 (# ab23738, Abcam) and Flag-tag (dilution 1:1000; # F1804, Sigma-Aldrich). Monoclonal anti-HA agarose (# A2095, Sigma-Aldrich) was used for HA-tag Co-IP. For glutathione-S-transferase (GST) pulldown assay, GST-tagged STAT2 fragment expressed at E. coli was purified by Glutathione Sepharose 4B beads (# 84-239, Genesee Scientific) and incubated with lysate from 293T cells expressing interested proteins, and GST pulldown assays were performed. For protein co-IP, samples eluted in IP butter were incubated with agarose beads and antibodies overnight at 4° C. and washed with 6 times with IP buffer in the following day. Samples were boiled for 10 minutes in 50 μl sample buffer (2% SDS, 10% glycerol, 10% β-mercaptoethanol, bromophenol blue and Tris-HCl, pH 6.8) and subjected to Western blotting.

T1 sequence (P52630 whole entry): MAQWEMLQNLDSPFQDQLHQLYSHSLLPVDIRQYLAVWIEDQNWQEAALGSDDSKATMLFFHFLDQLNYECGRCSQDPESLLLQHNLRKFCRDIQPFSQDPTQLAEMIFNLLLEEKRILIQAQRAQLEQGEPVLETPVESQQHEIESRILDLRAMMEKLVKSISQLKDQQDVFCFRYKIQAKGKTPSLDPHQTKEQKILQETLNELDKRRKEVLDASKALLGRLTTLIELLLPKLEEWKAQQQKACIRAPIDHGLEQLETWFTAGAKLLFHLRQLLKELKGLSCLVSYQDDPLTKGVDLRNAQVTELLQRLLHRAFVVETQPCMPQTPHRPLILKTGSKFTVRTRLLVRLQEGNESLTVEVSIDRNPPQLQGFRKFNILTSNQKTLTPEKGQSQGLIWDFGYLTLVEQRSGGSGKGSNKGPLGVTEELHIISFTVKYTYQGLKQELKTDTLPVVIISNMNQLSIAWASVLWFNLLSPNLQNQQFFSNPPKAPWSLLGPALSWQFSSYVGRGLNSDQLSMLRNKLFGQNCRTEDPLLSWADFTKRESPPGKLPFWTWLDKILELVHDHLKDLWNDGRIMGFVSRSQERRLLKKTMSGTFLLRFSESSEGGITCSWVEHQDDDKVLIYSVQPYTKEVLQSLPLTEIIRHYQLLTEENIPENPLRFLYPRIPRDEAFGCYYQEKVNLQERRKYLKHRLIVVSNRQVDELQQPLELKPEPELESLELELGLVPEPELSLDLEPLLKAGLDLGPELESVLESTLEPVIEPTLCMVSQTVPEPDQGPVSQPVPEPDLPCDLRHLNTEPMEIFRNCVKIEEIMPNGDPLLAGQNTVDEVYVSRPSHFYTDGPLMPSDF

Row | binding result | Binder
1 | binds | FOXA1-F266L (other, UniProt P55317 1-472, looked up, Ectopically expressed in 293T cells) MLGTVKMEGHETSDWNSYYADTQEAYSSVPVSNMNSGLGSMNSMNTYMTMNTMTTSGNMTPASFNMSYANPGLGAGLSPGAVAGMPGGSAGAMNSMTAAGVTAMGTALSPSGMGAMGAQQAASMNGLGPYAAAMNPCMSPMAYAPSNLGRSRAGGGGDAKTFKRSYPHAKPPYSYISLITMAIQQAPSKMLTLSEIYQWIMDLFPYYRQNQQRWQNSIRHSLSFNDCFVKVARSPDKPGKGSYWTLHPDSGNMFENGCYLRRQKRLKCEKQPGAGGGGGSGSGGSGAKGGPESRKDPSGASNPSADSPLHRGVHGKTGQLEGAPAPGPAASPQTLDHSGATATGGASELKTPASSTAPPISSGPGALASVPASHPAHGLAPHESQLHLKGDPHYSFNHPFSINNLMSSSEQQHKLDFKAYEQALQYSPYGSTLPASLPLGSASVTTRSPIEPSALEPAYYQGVYSRPVLNTS
2 | binds | FOXA1-H247Q (other, UniProt P55317 1-472, looked up, Ectopically expressed in 293T cells) MLGTVKMEGHETSDWNSYYADTQEAYSSVPVSNMNSGLGSMNSMNTYMTMNTMTTSGNMTPASFNMSYANPGLGAGLSPGAVAGMPGGSAGAMNSMTAAGVTAMGTALSPSGMGAMGAQQAASMNGLGPYAAAMNPCMSPMAYAPSNLGRSRAGGGGDAKTFKRSYPHAKPPYSYISLITMAIQQAPSKMLTLSEIYQWIMDLFPYYRQNQQRWQNSIRHSLSFNDCFVKVARSPDKPGKGSYWTLQPDSGNMFENGCYLRRQKRFKCEKQPGAGGGGGSGSGGSGAKGGPESRKDPSGASNPSADSPLHRGVHGKTGQLEGAPAPGPAASPQTLDHSGATATGGASELKTPASSTAPPISSGPGALASVPASHPAHGLAPHESQLHLKGDPHYSFNHPFSINNLMSSSEQQHKLDFKAYEQALQYSPYGSTLPASLPLGSASVTTRSPIEPSALEPAYYQGVYSRPVLNTS
3 | binds | FOXA1-R261G (other, UniProt P55317 1-472, looked up, Ectopically expressed in 293T cells) MLGTVKMEGHETSDWNSYYADTQEAYSSVPVSNMNSGLGSMNSMNTYMTMNTMTTSGNMTPASFNMSYANPGLGAGLSPGAVAGMPGGSAGAMNSMTAAGVTAMGTALSPSGMGAMGAQQAASMNGLGPYAAAMNPCMSPMAYAPSNLGRSRAGGGGDAKTFKRSYPHAKPPYSYISLITMAIQQAPSKMLTLSEIYQWIMDLFPYYRQNQQRWQNSIRHSLSFNDCFVKVARSPDKPGKGSYWTLHPDSGNMFENGCYLGRQKRFKCEKQPGAGGGGGSGSGGSGAKGGPESRKDPSGASNPSADSPLHRGVHGKTGQLEGAPAPGPAASPQTLDHSGATATGGASELKTPASSTAPPISSGPGALASVPASHPAHGLAPHESQLHLKGDPHYSFNHPFSINNLMSSSEQQHKLDFKAYEQALQYSPYGSTLPASLPLGSASVTTRSPIEPSALEPAYYQGVYSRPVLNTS
